Measured values as given in US20190233517A1.

What was measured:
Details in all cases: remark: other sources report otherwise
[1] = target: Her3-his, P21860; experiment: SPR
[2] = target: HER3, P21860; experiment: kinetic binding data, method not stated
[3] = target: HER3, P21860; experiment: kinetic binding data, method not stated; remark: listed apart in the source

Kd [1]: 1.28 nM | Kd [2]: 0.0302 nM | Kd [3]: 0.9 nM
B1: Her3 antibody patritumab (antibody, V domains shown)
VH: QVQLQQWGAGLLKPSETLSLTCAVYGGSFSGYYWSWIRQPPGKGLEWIGEINHSGSTNYNPSLKSRVTISVETSKNQFSLKLSSVTAADTAVYYCARDKWTWYFDLWGRGTLVTVSS
VL: not shown
